# Results reported in PMC8614764, “Sulfane Sulfur Is a Strong Inducer of the Multiple Antibiotic Resistance Regulator MarR in Escherichia coli” (Antioxidants, 2021).
# Where a chain is given by its changes, count along the chain named.
# T1: MarR (Escherichia coli MG1655) (UniProt P27245)
# T1 sequence: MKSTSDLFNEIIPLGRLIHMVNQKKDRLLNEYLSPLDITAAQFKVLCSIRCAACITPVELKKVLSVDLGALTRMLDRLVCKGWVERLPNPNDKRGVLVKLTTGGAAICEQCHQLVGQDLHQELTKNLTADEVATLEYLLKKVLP
# T2: MarR-5XS C47S;C51S;C54S;C108S;C111S (Escherichia coli MG1655) (UniProt P27245)
# T2 sequence: T1 sequence with C47S, C51S, C54S, C108S, C111S
# B1: H2Sn-treated MarR-5XS (protein)
# chain: T1 sequence with C47S, C51S, C54S, C108S, C111S
# B2: MarR-5XS (untreated) (natural protein)
# chain: T1 sequence with C47S, C51S, C54S, C108S, C111S
# notes: Multiple antibiotic resistance regulator MarR of E. coli MG1655, gene b1530; primers run from the GTG start codon to the stop codon; all Cys except Cys80 changed to Ser; Made from pET30a; Primarily a dimer by SEC; also called MarR/5CS; MarR-5CS; source: E. coli BL21(DE3), purified (Ni-NTA, PD-10 desalting) under anaerobic conditions
# B3: H2Sn-treated MarR-5XS (natural protein)
# chain: T1 sequence with C47S, C51S, C54S, C108S, C111S
# modifications: Cys80 disulfide between chains after H2Sn treatment (disulfide-stabilized tetramer)
# notes: Multiple antibiotic resistance regulator MarR of E. coli MG1655, gene b1530; primers run from the GTG start codon to the stop codon; all Cys except Cys80 changed to Ser; treated with polysulfide (H2Sn); The treated sample is a mixture of dimer, tetramer and possibly multimers by SEC; the tetramer is the main species; The disulfide and trisulfide at Cys80 were identified by LC-MS/MS on treated …
# B4: H2Sn-treated MarR (natural protein)
# chain: T1 sequence
# modifications: Cys80 linked to Cys80 of another chain by a disulfide (Cys80-Cys80) or trisulfide (Cys80-S-Cys80) bond
# notes: Multiple antibiotic resistance regulator MarR of E. coli MG1655, gene b1530; primers run from the GTG start codon to the stop codon; treated with polysulfide (H2Sn); SEC was done only with MarR-5XS; The vector pET30a may add further residues between the His tag and MarR (surmised from the primer); also called pET30-MarR product; source: E. coli BL21, purified (Ni-NTA) in an anaerobic chamber, …
# What was measured:
# [1] = target: T1, MarR (Escherichia coli MG1655); assay: EMSA; conditions: EMSA: 10 mM Tris, 50 mM KCl, 5% glycerin, pH 8.0, 25 C, 30 min, 20 nM probe, 15 uL; 6% native PAGE
# [2] = target: T2, MarR-5XS C47S;C51S;C54S;C108S;C111S (Escherichia coli MG1655); assay: EMSA; conditions: EMSA: 10 mM Tris, 50 mM KCl, 5% glycerin, pH 8.0, 25 C, 30 min, 20 nM probe, 15 uL; 6% native PAGE
# P27245 = assay: SEC; Superdex-200, 10 mM Tris-HCl pH 8.0, 100 mM NaCl; MarR-5XS (25 µM) after 400 µM H2Sn for 20 min; dimers to tetramer; mass calibrated with BSA (67 kDa) and T7 RNA polymerase (99 kDa)
# [3] = target: the molecule itself; assay: SEC; Superdex-200, 10 mM Tris-HCl pH 8.0, 100 mM NaCl; untreated MarR-5XS, 25 µM; monomers to dimer
# [4] = target: the molecule itself; assay: SEC; Superdex-200, 10 mM Tris-HCl pH 8.0, 100 mM NaCl; MarR-5XS (25 µM) after 400 µM H2Sn for 20 min; dimers to tetramer; mass calibrated with BSA (67 kDa) and T7 RNA polymerase (99 kDa)
# [5] = target: the molecule itself; assay: cross-linking; LC-MS/MS of tryptic peptides of MarR reacted with 10-fold H2Sn, anaerobic, room temperature, 30 min; free thiols blocked with iodoacetamide; disulfide- and trisulfide-linked Cys80 peptides identified
molecule,measurement,setting,value
CATCGCATTGAACAAAACTTGAACCGATTTAGCAAAACGTGGCATCGGTCAATTCATTCATTTGACTTATACTTGCCTGGGCAATATTATCCCCTGCAAC (double strand) [marRAB promoter EMSA probe],binding,[1],binds
same,binding,[2],binds
B1,percent of protein as dimer (SEC peak area),P27245,"the dimer, tetramer, and multimer represented 37.4%, 54.1%, and 8.5%"
same,percent of protein as multimer (SEC peak area),P27245,"the dimer, tetramer, and multimer represented 37.4%, 54.1%, and 8.5%"
same,percent of protein as tetramer (SEC peak area),P27245,"the dimer, tetramer, and multimer represented 37.4%, 54.1%, and 8.5%"
B2,stoichiometry N,[3],2
B3,stoichiometry N,[4],4
B4,binding result,[5],binds
